Test results as given in US5574136.
pKd: −log10 of the molar value.

Target: human G-CSF receptor, class 2 (plasmid pHQ2), form lacking the transmembrane domain (human)
Assay: saturation binding of murine 125I-G-CSF to COS cells transfected with pHQ2, Scatchard plot

“mouse recombinant G-CSF (granulocyte colony-stimulating factor) (from UniProt P09920) (ligand)” was tested, and the pKd was 9.36 and the binding sites /cell was 6000 /cell.
